Source: patent US20240116985A1 (published 2024)
Starred links: 1 amine or outer side, 2 acyl side, 3 side chain; linkers in the order of their positions; H or OH if unused. Positions of bridges follow the written chain, without caps; N, C: chain ends. Non-standard residues stand in square brackets, D forms with d. Primed or numbered codes have the meaning given here. *: point of attachment. PyrS2(3) = (S)-3-amino-1-((pent-4-en-1-yloxy)carbonyl)pyrrolidine-3-carboxylic acid, stapling residue, C=CCCCOC(=O)N1CC[C@@](N[*:1])(C(=O)[*:2])C1; PyrS2″ = (S)-3-amino-1-((pent-4-en-1-yloxy)carbonyl)pyrrolidine-3-carboxylic acid (stapling residue), C=CCCCOC(=O)N1CC[C@@](N[*:1])(C(=O)[*:2])C1; PyrS3″ = (S)-3-amino-1-((hex-5-en-1-yloxy)carbonyl)pyrrolidine-3-carboxylic acid (stapling residue), C=CCCCCOC(=O)N1CC[C@@](N[*:1])(C(=O)[*:2])C1; B5(4) = 2,2-bis(4-pentenyl)glycine = 2-amino-2-(pent-4-en-1-yl)hept-6-enoic acid (stitching residue), C=CCCCC(CCCC=C)(N[*:1])C(=O)[*:2]; B5(5) = 2,2-bis(4-pentenyl)glycine, 2-amino-2-(pent-4-en-1-yl)hept-6-enoic acid (stitching residue), C=CCCCC(CCCC=C)(N[*:1])C(=O)[*:2]; B5(21) = 2-amino-2-(pent-4-en-1-yl)hept-6-enoic acid, bis(4-pentenyl)glycine (stitching residue), C=CCCCC(CCCC=C)(N[*:1])C(=O)[*:2]; B5(6) = 2-amino-2-(pent-4-en-1-yl)hept-6-enoic acid (bis(4-pentenyl)glycine), stitching residue, C=CCCCC(CCCC=C)(N[*:1])C(=O)[*:2]; TfeGA = (S)-2-amino-3-((carboxymethyl)(2,2,2-trifluoroethyl)amino)propanoic acid, O=C([C@H](CN(CC(=O)[*:3])CC(F)(F)F)N[*:1])[*:2]; PyrS2 = (S)-3-amino-1-((pent-4-en-1-yloxy)carbonyl)pyrrolidine-3-carboxylic acid, C=CCCCOC(=O)N1CC[C@@](N[*:1])(C(=O)[*:2])C1; PyrS3 = (S)-3-amino-1-((hex-5-en-1-yloxy)carbonyl)pyrrolidine-3-carboxylic acid, C=CCCCCOC(=O)N1CC[C@@](N[*:1])(C(=O)[*:2])C1; B5(13) = 2-amino-2-(pent-4-en-1-yl)hept-6-enoic acid (two alkene chains), C=CCCCC(CCCC=C)(N[*:1])C(=O)[*:2]; B5(3) = 2,2-bis(4-pentenyl)glycine (stitching residue), C=CCCCC(CCCC=C)(N[*:1])C(=O)[*:2]; B5″ = 2,2-bis(4-pentenyl)glycine, stitching residue, C=CCCCC(CCCC=C)(N[*:1])C(=O)[*:2]; mPEG2 = N-terminal 3-(2-methoxyethoxy)propanoic acid, COCCOCCC(=O)*; Phe(2-CN) = N#Cc1ccccc1C[C@H](N)C(=O)O; Phe(2-Cl) = N[C@@H](Cc1ccccc1Cl)C(=O)O; Phe(2-OMe) = COc1ccccc1C[C@H](N)C(=O)O; Phe(3-F) = N[C@@H](Cc1cccc(F)c1)C(=O)O; Phe(4-F) = N[C@@H](Cc1ccc(F)cc1)C(=O)O; 1Nal = N[C@@H](Cc1cccc2ccccc12)C(=O)O; Phe(2-Me) = Cc1ccccc1C[C@H](N)C(=O)O; Bta = N[C@@H](Cc1csc2ccccc12)C(=O)O; αAllylPro = C=CC[C@@]1(C(=O)O)CCCN1; tBuAla = CC(C)(C)C[C@H](N)C(=O)O; 2Thi = N[C@@H](Cc1cccs1)C(=O)O; 3Thi = N[C@@H](Cc1ccsc1)C(=O)O; S8 = C=CCCCCCC[C@](C)(N)C(=O)O; Thr(ol) = C[C@@H](O)[C@H](N)CO; hLeu = CC(C)CC[C@H](N)C(=O)O; Alaol = C[C@@H](CO)N*; Ms = CS(=O)(=O)*

B1: I-1218 (peptide)
peptide: Ms-[αAllylPro]D[tBuAla][B5″]DDAAFN[PyrS2(3)][3Thi][Bta]Q-NH2
modifications: staple 1-4, 4-11; not fully specified; printed as MeSO2-PL3-Asp-Npg-B5-Asp-Asp-Ala-Ala-Phe-Asn-PyrS2-3Thi-BztA-Gln-NH2
B2: I-469 (peptide)
peptide: Ac-[αAllylPro]DI[B5(6)]DDAAFN[S8]F[Bta]H-NH2
modifications: staple 1-4, 4-11; also: staple isomer composition: earlier-eluting HPLC peak
notes: Staple isomer composition: earlier-eluting HPLC peak
B3: I-467 (peptide)
peptide: Ac-[αAllylPro]DI[B5(6)]DDAAFN[S8]F[Bta]Q-NH2
modifications: staple 1-4, 4-11; also: staple isomer composition: earlier-eluting HPLC peak
notes: as for B2
B4: I-468 (peptide)
peptide: Ac-[αAllylPro]DI[B5(6)]DDAAFN[S8]F[Bta]Q-NH2
modifications: staple 1-4, 4-11; also: staple isomer composition: later-eluting HPLC peak
notes: Staple isomer composition: later-eluting HPLC peak
B5: I-454 (peptide)
peptide: Ac-[αAllylPro]DA[B5(21)]DEAA[Phe(3-F)]N[S8]F[Bta]Q-NH2
modifications: staple 1-4, 4-11
notes: Stapled (stitched) peptide with non-natural residues
B6: I-462 (peptide)
peptide: Ac-[αAllylPro]DA[B5(21)]DEAAFN[PyrS2″]F[Bta]Q-NH2
modifications: staple 1-4, 4-11
notes: as for B5
B7: I-455 (peptide)
peptide: Ac-[αAllylPro]DA[B5(21)]DEAA[Phe(4-F)]N[S8]F[Bta]Q-NH2
modifications: staple 1-4, 4-11
notes: as for B5
B8: I-464 (peptide)
peptide: Ac-[αAllylPro]DA[B5(21)]DEAAFN[PyrS3″]F[Bta]Q-NH2
modifications: staple 1-4, 4-11; not fully specified; printed as Ac-PL3-Asp-Ala-B5-Asp-Glu-Ala-Ala-Phe-Asn-PyrS3-Phe-BztA-Gln-NH2
notes: as for B4
B9: I-463 (peptide)
peptide: Ac-[αAllylPro]DA[B5(21)]DEAAFN[PyrS3″]F[Bta]Q-NH2
modifications: staple 1-4, 4-11; also: earlier-eluting HPLC staple isomer
notes: as for B2

biological target: T1, B-cat-Halo (UniProt P35222 1-781); experiment: cell-based or functional assay
T1 sequence (looked up): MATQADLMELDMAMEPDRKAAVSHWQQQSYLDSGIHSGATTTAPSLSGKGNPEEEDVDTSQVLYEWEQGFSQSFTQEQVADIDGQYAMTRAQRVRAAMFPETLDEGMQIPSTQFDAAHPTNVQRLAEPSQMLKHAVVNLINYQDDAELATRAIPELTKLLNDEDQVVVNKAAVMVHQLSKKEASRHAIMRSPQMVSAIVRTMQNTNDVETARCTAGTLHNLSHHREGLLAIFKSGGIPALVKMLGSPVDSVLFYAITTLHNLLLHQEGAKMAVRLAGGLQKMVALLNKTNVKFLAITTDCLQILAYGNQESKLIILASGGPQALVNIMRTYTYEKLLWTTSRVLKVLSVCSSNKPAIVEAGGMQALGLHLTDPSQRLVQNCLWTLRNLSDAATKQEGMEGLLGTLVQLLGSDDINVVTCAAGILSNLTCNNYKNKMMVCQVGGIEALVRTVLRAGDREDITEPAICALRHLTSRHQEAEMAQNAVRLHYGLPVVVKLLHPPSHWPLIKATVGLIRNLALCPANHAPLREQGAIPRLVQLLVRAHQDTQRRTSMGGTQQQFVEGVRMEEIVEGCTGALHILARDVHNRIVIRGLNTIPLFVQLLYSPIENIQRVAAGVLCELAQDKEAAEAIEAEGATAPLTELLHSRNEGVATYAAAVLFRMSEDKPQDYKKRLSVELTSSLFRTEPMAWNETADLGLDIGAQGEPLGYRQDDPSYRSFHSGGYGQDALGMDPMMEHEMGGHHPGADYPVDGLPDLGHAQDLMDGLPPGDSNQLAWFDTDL

Row | NanoBRET Abs IC50 [µM] | Binder
1 | 10 | Ac-[αAllylPro]D[tBuAla][B5″]DDAAFL[PyrS2(3)][Phe(2-CN)][Bta]Q-NH2 (staple 1-4, 4-11) [I-1203]
2 | 7.5 | Ac-[αAllylPro]D[tBuAla][B5″]NDAAFL[PyrS2(3)][3Thi][Bta]Q-NH2 (staple 1-4, 4-11) [I-1207]
3 | > 20 | Ac-[αAllylPro]D[tBuAla][B5(4)]DDAAFL[PyrS2″][Phe(2-Cl)][Bta]-Alaol (staple 1-4, 4-11) [I-1250]
4 | 29.7 | Ac-[αAllylPro]D[tBuAla][B5(4)]DDAAFL[PyrS2″][Phe(2-Cl)][Bta]Q-NHEt (staple 1-4, 4-11) [I-1248]
5 | > 20 | B1
6 | 25.2 | Ac-[αAllylPro]D[tBuAla][B5(4)]DDAAFL[PyrS2″][Phe(2-Cl)][Bta][Thr(ol)] (staple 1-4, 4-11) [I-1249]
7 | > 20 | Ms-[αAllylPro]D[tBuAla][B5″]D[TfeGA]AAFN[PyrS2(3)][3Thi][Bta]Q-NH2 (staple 1-4, 4-11; not fully specified) [I-1219]
8 | > 20 | mPEG2-[αAllylPro]D[tBuAla][B5(5)]DDAAFN[PyrS2″][Phe(2-Cl)][Bta][dT]-NH2 (staple 1-4, 4-11) [I-1253]
9 | 23.4 | Ac-[αAllylPro]N[tBuAla][B5(4)]DDAAFL[PyrS2″][3Thi][Bta]Q-NH2 (staple 1-4, 4-11) [I-1221]
10 | 17.3 | Ac-[αAllylPro]N[tBuAla][B5(4)]DDAAFN[PyrS2″][3Thi][Bta]Q-NH2 (staple 1-4, 4-11) [I-1220]
11 | 27.8 | Ac-[αAllylPro]D[tBuAla][B5″]NDAAFN[PyrS2(3)][3Thi][Bta]Q-NH2 (staple 1-4, 4-11) [I-1206]

biological target: T2, B-cat-Halo (UniProt P35222 1-781); experiment: cell-based or functional assay
T2 sequence (looked up): T1 sequence (looked up)

Row | NanoBRET Abs IC50 [µM] | Binder
12 | 30.7 | Ac-[αAllylPro]D[hLeu][B5(3)]DDAAFN[PyrS2][3Thi][Bta]Q-NH2 (staple 1-4, 4-11) [I-787]
13 | > 20 | Ac-[αAllylPro]D[tBuAla][B5(13)]DDAAFN[PyrS3][3Thi][Bta]H-NH2 (staple 1-4, 4-11) [I-775]
14 | 12.2 | Ac-[αAllylPro]D[tBuAla][B5(13)]DDAAFN[PyrS2][Phe(2-Me)][Bta]H-NH2 (staple 1-4, 4-11) [I-782]
15 | 6.2 | Ac-[αAllylPro]D[tBuAla][B5(13)]DDAAFN[PyrS2][Phe(2-Cl)][Bta]Q-NH2 (staple 1-4, 4-11) [I-783]
16 | 20.7 | Ac-[αAllylPro]D[tBuAla][B5(13)]DDAAFN[PyrS2][Phe(2-OMe)][Bta]Q-NH2 (staple 1-4, 4-11) [I-780]
17 | 18.7 | Ac-[αAllylPro]D[tBuAla][B5(13)]DDAAFN[PyrS2][2Thi][Bta]H-NH2 (staple 1-4, 4-11) [I-779]
18 | 11.2 | Ac-[αAllylPro]D[tBuAla][B5(13)]DDAAFN[PyrS2][2Thi][Bta]Q-NH2 (staple 1-4, 4-11) [I-778]
19 | 21.6 | Ac-[αAllylPro]D[tBuAla][B5(3)]DDAAFN[PyrS2][3Thi][Bta]-NH2 (staple 1-4, 4-11) [I-785]
20 | 19.8 | Ac-[αAllylPro]D[tBuAla][B5(13)]DDAAFN[PyrS2]F[Bta]H-NH2 (staple 1-4, 4-11) [I-777]
21 | 45.7 | Ac-[αAllylPro]D[tBuAla][B5(13)]DDAAFN[PyrS3][3Thi][Bta]H-NH2 (staple 1-4, 4-11) [I-776]
22 | 29.3 | Ac-[αAllylPro]D[tBuAla][B5(3)]DEAAFN[PyrS2][3Thi][Bta]-NH2 (staple 1-4, 4-11) [I-786]
23 | 21.6 | Ac-[αAllylPro]D[hLeu][B5(3)]DDAAFN[PyrS2][3Thi][Bta]H-NH2 (staple 1-4, 4-11) [I-788]
24 | 31 | Ac-[αAllylPro]D[tBuAla][B5(13)]DDAAFN[PyrS2][Phe(2-OMe)][Bta]H-NH2 (staple 1-4, 4-11) [I-781]
25 | 14.5 | Ac-[αAllylPro]D[tBuAla][B5(3)]DDAAFN[PyrS2][Phe(2-Cl)][Bta]H-NH2 (staple 1-4, 4-11) [I-784]
26 | > 20 | Ac-[αAllylPro]D[tBuAla][B5(3)]DDAAFN[PyrS2][3Thi][1Nal]H-NH2 (staple 1-4, 4-11) [I-789]

biological target: T3, full-length beta-Catenin (Uniprot ID P35222) (Homo sapiens (Human), UniProt P35222 1-781); experiment: fluorescence polarization competition: full-length beta-catenin + 5FAM-TCF4(10-53) probe, peptide titrated
T3 construct: The assay protocol says full-length beta-Catenin (Uniprot ID P35222); tags are not described; also called bCat; B-Catenin
T3 sequence: T1 sequence (looked up)
Description: The plate was incubated protected from light for 60 minutes at 20° C. prior to read. Reads were performed on a CLARIOstar plate reader (BMG Labtech) in duplicate, and data were fitted to a 1:1 binding model with hill slope using an in-house script. All provided concentrations are final concentrations.

Row | EC50 [µM] | Binder
27 | 0.027 | B2
28 | 0.044 | B3
29 | 0.027 | B4
30 | 0.125 | B5
31 | 0.028 | B6
32 | 0.0835 | B7
33 | 0.057 | B8
34 | 0.092 | B9
